Laboratory results from patent US10925971B2, “Methods of treating PRLR positive breast cancer” (Regeneron Pharmaceuticals, Inc., priority 2016, dated 2021).

T1: human PRLR on HEK293/hPRLR cells (Homo sapiens, UniProt P16471)
T1 construct: HA; expressed in transfected cells; host or cells: HEK293
T1 sequence (P16471 25-622): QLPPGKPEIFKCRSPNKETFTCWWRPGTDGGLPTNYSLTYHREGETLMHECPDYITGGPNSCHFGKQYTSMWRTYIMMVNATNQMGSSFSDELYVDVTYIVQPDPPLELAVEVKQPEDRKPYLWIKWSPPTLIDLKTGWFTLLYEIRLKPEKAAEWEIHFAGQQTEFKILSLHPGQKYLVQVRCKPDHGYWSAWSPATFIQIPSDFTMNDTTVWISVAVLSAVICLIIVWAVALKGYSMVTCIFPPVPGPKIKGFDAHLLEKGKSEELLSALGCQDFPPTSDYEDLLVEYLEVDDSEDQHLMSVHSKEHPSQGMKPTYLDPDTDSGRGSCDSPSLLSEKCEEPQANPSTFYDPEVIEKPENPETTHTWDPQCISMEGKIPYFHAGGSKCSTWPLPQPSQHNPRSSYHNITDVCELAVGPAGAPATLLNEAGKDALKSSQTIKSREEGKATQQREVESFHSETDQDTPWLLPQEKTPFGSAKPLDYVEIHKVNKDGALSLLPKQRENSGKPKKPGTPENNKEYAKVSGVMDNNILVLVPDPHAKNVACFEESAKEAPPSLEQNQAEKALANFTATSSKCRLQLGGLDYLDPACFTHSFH

T2: monkey PRLR on HEK293/mfPRLR cells (Macaca fascicularis, UniProt A0A2K5WXK1)
T2 construct: HA; expressed in transfected cells; host or cells: HEK293
T2 sequence (A0A2K5WXK1 25-619): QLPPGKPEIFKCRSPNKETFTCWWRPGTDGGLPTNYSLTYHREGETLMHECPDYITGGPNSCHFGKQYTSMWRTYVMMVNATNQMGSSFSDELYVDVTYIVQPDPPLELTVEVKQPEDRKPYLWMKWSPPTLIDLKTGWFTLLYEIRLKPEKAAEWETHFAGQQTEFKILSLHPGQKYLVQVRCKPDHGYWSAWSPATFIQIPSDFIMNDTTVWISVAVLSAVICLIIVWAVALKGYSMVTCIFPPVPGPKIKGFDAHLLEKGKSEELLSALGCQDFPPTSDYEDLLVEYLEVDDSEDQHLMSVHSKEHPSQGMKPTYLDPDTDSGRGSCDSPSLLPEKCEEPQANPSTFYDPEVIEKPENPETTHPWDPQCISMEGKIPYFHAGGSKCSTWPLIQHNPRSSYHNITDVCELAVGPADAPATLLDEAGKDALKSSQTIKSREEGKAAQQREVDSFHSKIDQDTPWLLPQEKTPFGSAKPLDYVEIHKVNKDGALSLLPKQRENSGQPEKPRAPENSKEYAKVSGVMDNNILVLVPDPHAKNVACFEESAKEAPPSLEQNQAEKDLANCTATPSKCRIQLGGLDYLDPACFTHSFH

T3: mouse PRLR on HEK293/mPRLR cells (Mus musculus, UniProt Q08501)
T3 construct: HA; expressed in transfected cells; host or cells: HEK293
T3 sequence (Q08501 20-608): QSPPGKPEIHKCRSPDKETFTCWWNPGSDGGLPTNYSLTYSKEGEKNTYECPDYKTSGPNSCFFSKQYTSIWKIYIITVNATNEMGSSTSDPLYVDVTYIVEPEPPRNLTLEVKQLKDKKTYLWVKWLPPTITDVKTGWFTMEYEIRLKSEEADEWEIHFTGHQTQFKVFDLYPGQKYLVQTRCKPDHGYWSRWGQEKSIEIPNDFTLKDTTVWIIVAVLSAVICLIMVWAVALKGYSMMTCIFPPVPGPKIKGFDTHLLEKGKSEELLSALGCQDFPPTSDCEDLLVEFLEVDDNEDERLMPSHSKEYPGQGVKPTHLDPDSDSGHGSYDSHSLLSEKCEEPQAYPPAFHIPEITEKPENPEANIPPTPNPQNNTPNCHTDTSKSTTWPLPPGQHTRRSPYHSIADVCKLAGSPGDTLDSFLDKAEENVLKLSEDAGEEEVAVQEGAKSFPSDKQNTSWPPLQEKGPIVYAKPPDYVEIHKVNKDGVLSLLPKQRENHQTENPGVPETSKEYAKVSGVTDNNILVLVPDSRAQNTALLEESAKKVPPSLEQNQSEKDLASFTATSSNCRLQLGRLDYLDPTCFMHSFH

B1: H1H6953N: anti-PRLR antibody, human IgG1 Fc form of H1M6953N of Table 1; HCVR/LCVR SEQ ID NOs 274/282 (antibody, V domains shown)
VH: EVQLLESGGGLVQPGGTLRLSCAASGFTFSAYAMSWVRQAPGKGLEWVSSINVRAGDTYYADSVKGRFTISRDNSKNTLFLLMNSLRAEDTAAYYCAKARYSSNWGFDFWGQGTLVTVSS
VL: DIVMTQSPDSLTVSLGARTTINCQSSQTILHSSNNHNYLAWYQQKPGLPPKLLIYWSSTRESGVPDRFSGSGSGTDFTLTISSLQAEDVAIYYCQQYSNTPYTFGQGTKLEIN
B2: H1H6774P: fully human anti-PRLR antibody, human IgG1 Fc; HCVR/LCVR SEQ ID NOs 34/42 (antibody, V domains shown)
VH: EVQLVESGGGLAQPGGSLRLSCVASGFTFSTYWMSWVRQAPGKGLDWVGNIKQDGSEQNYVDSVRGRFTISRDNAKNSLFLQMNSLRAEDTGVYYCATLLTKGDYWGQGTLVTVSS
VL: DIQMTQSPSSLSASVGDSVTITCRASQDISNYLDWFQQKPGKAPKSLIYAASILQGGVPSRFSGSGYGTDFTLTISSLQPEDFATYYCRQYKTYPFTFGPGTKVDIK
B3: H1H6975N: anti-PRLR antibody, human IgG1 Fc form of H2M6975N of Table 1; HCVR/LCVR SEQ ID NOs 370/378 (antibody, V domains shown)
VH: EVHLVESGGGLVQPGGSLRLSCAASGFTFSSYEMNWVRQTPGKGLEWISHISSRSVIIYYADSVKGRFTISRDNAKNSLFLQMNSLRAEDTAVYFCAGITIFGIPEYWGQGTLVTVSS
VL: EIVLTQSPATLSLSPGERATLSCRASQSVSSYFAWYQQKPGQAPRLLIYDASSRATGIPTRFSGSGSGTDFTLTISSLEPEDFAVYYCQQRSSWPITFGQGTRLEIK
modifications: human IgG1 Fc
B4: H1H6765P: fully human anti-PRLR antibody, human IgG1 Fc; HCVR/LCVR SEQ ID NOs 18/26 (antibody, V domains shown)
VH: EVQLVESGGGVVRPGGSLRLSCVGSGFSFDDHGMNWVRQGPGKGLEWVSGFNWNGGSTNYAESVKGRFTISRDNARNSLFLQMNSLRAEDTALYYCVRGRSGWFNDAFDVWGPGTMVTVSS
VL: EIVLTQSPGTLSLSPGERATLSCRASQTINSNYLAWYRQKPGQTPRLLIYGTSSRATGIPDRFSGSGSGTDFSLTISRLEPEDFAVFYCQQYAGLPTFGPGTKVDIK
B5: H1H6795P: fully human anti-PRLR antibody, human IgG1 Fc; HCVR/LCVR SEQ ID NOs 162/170 (antibody, V domains shown)
VH: QVQLVQSGAEVKKPGASVKVSCKASGYTFGTSGITWVRQAPGQGLEWMGWSSAYNGKTDYAQKFQDRVTMTTDTSTTTGYMEMRSLTSDDTAVYYCTTVVRRPFDFWGQGTLVTVSS
VL: DIQMTQSPSSLSASVGDRVTITCRASQDINNFLAWFQQKPGKAPKSLIYAASSLQSGVPSKFSGGGSGTDFALTISSLQPEDFATYYCQQYSSYPITFGQGTRLEIK
B6: H1H6797P: fully human anti-PRLR antibody, human IgG1 Fc; HCVR/LCVR SEQ ID NOs 178/186 (antibody, V domains shown)
VH: EVQLVESGGGLVQPGGSLRLSCIVSGFTFSGSWMSWVRQLPGKGLEWVANIKEDGSDSYYVDSVEGRFTISRDNAKSSLYLQMNSLRVDDTAVYFCARARTVPLHYWGQGTLVTVSS
VL: DIQMTQSPSTLSASVGDRVTITCRASQSINIWLAWYQQKPGKAPKLLIYRASYLESGVPSSFAGGGSGTEFTLTISSLQPDDFGTYYCQHYNSYPFTFGQGTKLEIK
B7: H1H6782P: fully human anti-PRLR antibody, non-blocking; HCVR/LCVR SEQ ID NOs 66/74 (antibody, V domains shown)
VH: EVQLVESGGGLVQPGRSLRLSCAASGFTFDDYAMHWVRQAPGKGLEWVSGIIWNSGHIGYGDSVKGRFTISRDNAKKSLYLQMNSLRAEDTALYYCARDSGRYQSYFDYWGQGTLVTVSS
VL: DIQMTQSPSTLSASVGDRVTITCRASHIISSWLAWYQQKPGKAPKVLIFKASSLESGVPSRFSGSGSGTEFTLTISSLQPDDFATYYCQQYNTYSRTFGQGTKVEIK
B8: H1H6958N2: anti-PRLR antibody, receptor blocking, human IgG1 Fc form of H2M6958N2 of Table 1; HCVR/LCVR SEQ ID NOs 290/298 (antibody, V domains shown)
VH: QVQLVESGGGVVQPGRSLRLSCGASGFTFRNYGMQWVRQGPGKGLEWVTLISFDGNDKYYADSVKGRFTISRDNSKNTLFLQMNSLRTEDTAVYYCARGGDFDYWGQGTLVTVSS
VL: DIQMTQSPSSLSASVGDRVTITCRASQDIRKDLGWYQQKPGKAPKRLIYAASSLHSGVPSRFSGSGSGTEFTLTISSLQPEDFATYYCLQHNSYPMYTFGQGTKLEIK

System: HEK293 parental cells
Assay: FACS cell surface binding
Parameters: species or system human
How it was run: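 HEK293 cells stably transfected with HA-tagged human, cynomolgus or mouse PRLR (G418-selected), or parental HEK293, were stained with 10 μg/ml antibody for 30 min on ice. Binding was then detected with 10 μg/ml PE anti-human secondary for 30 min on ice, and MFI was expressed as fold over isotype control.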

Row | Molecule | FACS Cell Binding [Fold Above Background]
1 | B1 | 2
2 | B2 | 1
3 | B3 | 1
4 | B4 | 2
5 | B5 | 1
6 | B6 | 1
7 | B7 | 3
8 | B8 | 1

Molecular target: T1, human PRLR on HEK293/hPRLR cells
Assay: FACS cell surface binding
How it was run: (§1)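 Stable HEK293 transfectants carrying HA-tagged PRLR (human, Macaca fascicularis, mouse) were selected ≥2 weeks in G418. Cells were exposed to 10 μg/ml test antibody on ice for 30 min, washed, and labelled with PE anti-human antibody. Fluorescence was reported as fold change versus isotype.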

Row | Molecule | FACS Cell Binding [Fold Above Background]
9 | B1 | 37
10 | B2 | 1
11 | B3 | 38
12 | B4 | 38
13 | B5 | 1
14 | B6 | 1
15 | B7 | 41
16 | B8 | 35

Molecular target: T2, monkey PRLR on HEK293/mfPRLR cells
Assay: FACS cell surface binding
How it was run: as §1

Row | Molecule | FACS Cell Binding [Fold Above Background]
17 | B1 | 29
18 | B2 | 29
19 | B3 | 29
20 | B4 | 27
21 | B5 | 22
22 | B6 | 25
23 | B7 | 32
24 | B8 | 30

Molecular target: T3, mouse PRLR on HEK293/mPRLR cells
Assay: FACS cell surface binding
How it was run: as §1

Row | Molecule | FACS Cell Binding [Fold Above Background]
25 | B1 | 2
26 | B2 | 1
27 | B3 | 1
28 | B4 | 1
29 | B5 | 1
30 | B6 | 2
31 | B7 | 4
32 | B8 | 1
